# From the supplement of paper PMC10567573
# B1: FBXO33 (parent)
# chain: RLRGLLRVLRGRPGAGSRRRGRMA
# Variants of: B1
# Test: protein stability index of a GFP-peptide fusion (GPS, HEK-293T) (PSI 1-6); higher = more stable
# Conditions: c terminus: a fixed tail appended
# 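Note: lentivirally expressed fusions sorted by FACS into six bins by GFP to DsRed ratio, PSI derived from sequencing read proportions per bin multiplied by bin number.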
row,Variant,protein stability index
1,RQRGLLRVLRGRPGAGSRRRGRMA,5.05
2,RWRGLLRVLRGRPGAGSRRRGRMA,3.3
3,RERGLLRVLRGRPGAGSRRRGRMA,3.99
4,RFRGLLRVLRGRPGAGSRRRGRMA,2.1
5,RMRGLLRVLRGRPGAGSRRRGRMA,3.22
6,RPRGLLRVLRGRPGAGSRRRGRMA,4.19
7,RHRGLLRVLRGRPGAGSRRRGRMA,4.34
8,RKRGLLRVLRGRPGAGSRRRGRMA,3.56
9,RLRGLLRVLIGRPGAGSRRRGRMA,2.25
10,RLRGLLRVLAGRPGAGSRRRGRMA,1.96
11,RLRGLLRVLNGRPGAGSRRRGRMA,1.72
12,RLRGLLRVLPGRPGAGSRRRGRMA,2.59
13,RLRGLLRVLSGRPGAGSRRRGRMA,1.93
14,RLRGLLRVLCGRPGAGSRRRGRMA,2.99
15,QLRGLLRVLRGRPGAGSRRRGRMA,2.02
16,WLRGLLRVLRGRPGAGSRRRGRMA,1.69
17,SLRGLLRVLRGRPGAGSRRRGRMA,1.75
18,RLTGLLRVLRGRPGAGSRRRGRMA,2.23
19,RLQGLLRVLRGRPGAGSRRRGRMA,2.21
20,RLDGLLRVLRGRPGAGSRRRGRMA,2.67
21,RLMGLLRVLRGRPGAGSRRRGRMA,1.54
22,RLKGLLRVLRGRPGAGSRRRGRMA,2.83
23,RLVGLLRVLRGRPGAGSRRRGRMA,1.02
24,RLRGLARVLRGRPGAGSRRRGRMA,3.57

row,Variant,protein stability index
1,RLRGLERVLRGRPGAGSRRRGRMA,2.75
2,RLRGLGRVLRGRPGAGSRRRGRMA,4.8
3,RLRGLRRVLRGRPGAGSRRRGRMA,4.41
4,RLRGLDRVLRGRPGAGSRRRGRMA,5.1
5,RLRGLTRVLRGRPGAGSRRRGRMA,4.48
6,RLRGLIRVLRGRPGAGSRRRGRMA,2.18
7,RLRGLCRVLRGRPGAGSRRRGRMA,2.07
8,RLRGLVRVLRGRPGAGSRRRGRMA,2.77
9,RLRGLKRVLRGRPGAGSRRRGRMA,2.73
10,RLRGLLRVLRGRPGAGSRRAGRMA,4.73
11,RLRGLLRVLRGRPGAGSRRVGRMA,2.39
12,RLRGLLRVLRGRPGAGSRREGRMA,2.29
13,RLRGLLRVLRGRPGAGSRRFGRMA,1.13
14,RLRGLLRVLRGRPGAGSRRMGRMA,2.24
15,RLRGLLRVLRGRPGAGSRRCGRMA,1.72
16,RLRGLLRVLRGRPGAGSRRHGRMA,1.23
17,RLRGLLRVLRGRPGAGSRRQGRMA,1.56
18,RLRGLLRVLRGRPGAGSRNRGRMA,1.71
19,RLRGLLRVLRGRPGAGSRERGRMA,1.43
20,RLRGLLRVLRGRPGAGSRHRGRMA,1.88
21,RLRGLLRVLRGRPGAGSRSRGRMA,1.79
22,RLRGLLRVLRGRPGAGSRWRGRMA,1.48
23,RLRGLLRVLRGRPGAGSRTRGRMA,1.75
24,RLRGLLRVLRGRPGAGSRQRGRMA,1.75

row,Variant,protein stability index
1,RLRGLLRVLRGRPGAGSRKRGRMA,1.89
2,RLRGLLRVLRGRPGAGSIRRGRMA,1.72
3,RLRGLLRVLRGRPGAGSCRRGRMA,1.8
4,RLRGLLRVLRGRPGAGSERRGRMA,1.99
5,RLRGLLRVLRGRPGAGSHRRGRMA,1.59
6,RLRGLLRVLRGRPGAGSGRRGRMA,1.16
7,RLRGLLRVLRGRPGAGSFRRGRMA,1
8,RLRGLLRVLRGRPGAGSYRRGRMA,1.95
9,RLRGLLRVLRGRPGAGSPRRGRMA,1.08
10,RLRGLLRVLRGRPGAGSQRRGRMA,2.83
11,RLRGLLRVLRGRPGAGSLRRGRMA,1.15
12,RLRGLLRVLRGRPGAGSVRRGRMA,1.26
13,RLRGLLRVLRGRPGRGSRRRGRMA,2.46
14,RLRGLLRVLRGRPGLGSRRRGRMA,1.19
15,RLRGLLRVLRGRPGTGSRRRGRMA,1.47
16,RLRGLLRVLRGRPGNGSRRRGRMA,1.8
17,RLRGLLRVLRGRPGQGSRRRGRMA,1.49
18,RLRGLLRVLRGRPGSGSRRRGRMA,1.6
19,RLRGLLRVLRGRPGGGSRRRGRMA,1.54
20,RLRGLLRVLRGRPGFGSRRRGRMA,1.93
21,RLRGLLRVLRGRPGYGSRRRGRMA,2.17
22,RLRGLLRVLRGRPGCGSRRRGRMA,1.71
23,RLRGLLRVLRGRPGWGSRRRGRMA,1.8
24,RLRGLLRVLRGRPGKGSRRRGRMA,1.25

row,Variant,protein stability index
1,RLRGLLRVLRGRPGDGSRRRGRMA,1.66
2,RLRGLLRVLRERPGAGSRRRGRMA,1.83
3,RLRGLLRVLRPRPGAGSRRRGRMA,2.23
4,RLRGLLRVLRTRPGAGSRRRGRMA,2.23
5,RLRGLLRVLRHRPGAGSRRRGRMA,1.92
6,RLRGLLRVLRCRPGAGSRRRGRMA,1.64
7,RLRGLLRVLRNRPGAGSRRRGRMA,2.47
8,RLRGLLRVLRIRPGAGSRRRGRMA,2.77
9,RLRGLLRFLRGRPGAGSRRRGRMA,2.83
10,RLRGLLRSLRGRPGAGSRRRGRMA,1.93
11,RLRGLLRDLRGRPGAGSRRRGRMA,2.47
12,RLRGLLRPLRGRPGAGSRRRGRMA,4.41
13,RLRGLLRILRGRPGAGSRRRGRMA,2.84
14,RLRGLLRTLRGRPGAGSRRRGRMA,1.81
15,RLRGLLRHLRGRPGAGSRRRGRMA,2.1
16,RLRGLLRRLRGRPGAGSRRRGRMA,2.54
17,RLRGLLRKLRGRPGAGSRRRGRMA,1.91
18,RLRGLLRNLRGRPGAGSRRRGRMA,2.01
19,RLRGLLRWLRGRPGAGSRRRGRMA,1.87
20,RLRGLLRCLRGRPGAGSRRRGRMA,2.06
21,RLRGLLRYLRGRPGAGSRRRGRMA,2.64
22,RLRGLLTVLRGRPGAGSRRRGRMA,2.05
23,RLRGLLWVLRGRPGAGSRRRGRMA,1.69
24,RLRGLLLVLRGRPGAGSRRRGRMA,2.56

row,Variant,protein stability index
1,RLRGLLGVLRGRPGAGSRRRGRMA,2.86
2,RLRGLLEVLRGRPGAGSRRRGRMA,2.04
3,RLRGLLSVLRGRPGAGSRRRGRMA,2.83
4,RLRGLLNVLRGRPGAGSRRRGRMA,2.35
5,RLRGLLYVLRGRPGAGSRRRGRMA,2.41
6,RLRGLLIVLRGRPGAGSRRRGRMA,2.17
7,RLRGLLRVLRGWPGAGSRRRGRMA,1.79
8,RLRGLLRVLRGIPGAGSRRRGRMA,1.06
9,RLRGLLRVLRGGPGAGSRRRGRMA,2.53
10,RLRGLLRVLRGDPGAGSRRRGRMA,2.31
11,RLRGLLRVLRGSPGAGSRRRGRMA,2.19
12,RLRGLLRVLRGLPGAGSRRRGRMA,1.66
13,RLRGLLRVLRGTPGAGSRRRGRMA,2.03
14,RLRGLLRVLRGAPGAGSRRRGRMA,3.08
15,RLRGLLRVLRGQPGAGSRRRGRMA,2.17
16,RLRGLLRVLRGRPGAFSRRRGRMA,1.79
17,RLRGLLRVLRGRPGANSRRRGRMA,2.57
18,RLRGLLRVLRGRPGALSRRRGRMA,1.44
19,RLRGLLRVLRGRPGAPSRRRGRMA,2.06
20,RLRGLLRVLRGRPGASSRRRGRMA,1.5
21,RLRGLLRVLRGRPGAISRRRGRMA,1.01
22,RLRGLLRVLRGRPGAYSRRRGRMA,1.86
23,RLRGLLRVLRGRPGAQSRRRGRMA,1.65
24,RLRGLLRVLRGRPGAHSRRRGRMA,1.83

row,Variant,protein stability index
1,RLRGLLRVLRGRPGAESRRRGRMA,2.94
2,RLRGLLRVLRGRPGATSRRRGRMA,2.96
3,RLRPLLRVLRGRPGAGSRRRGRMA,2.23
4,RLRELLRVLRGRPGAGSRRRGRMA,2.08
5,RLRDLLRVLRGRPGAGSRRRGRMA,1.88
6,RLRRLLRVLRGRPGAGSRRRGRMA,2.06
7,RLRCLLRVLRGRPGAGSRRRGRMA,1.45
8,RLRLLLRVLRGRPGAGSRRRGRMA,2.2
9,RLRHLLRVLRGRPGAGSRRRGRMA,1.29
10,RLRGLLRVLRGRFGAGSRRRGRMA,2.1
11,RLRGLLRVLRGRHGAGSRRRGRMA,1.77
12,RLRGLLRVLRGRDGAGSRRRGRMA,2.01
13,RLRGLLRVLRGRKGAGSRRRGRMA,3.26
14,RLRGLLRVLRGRIGAGSRRRGRMA,1.6
15,RLRGLLRVLRGRSGAGSRRRGRMA,3.48
16,RLRGLLRVLRGRQGAGSRRRGRMA,2.34
17,RLRGLLRVLRGRVGAGSRRRGRMA,2.68
18,RLRGLLRVLRGRCGAGSRRRGRMA,2.09
19,RLRGLLRVLRGRPGAGSRRRIRMA,2.32
20,RLRGLLRVLRGRPGAGSRRRRRMA,3.38
21,RLRGLLRVLRGRPGAGSRRRCRMA,1.39
22,RLRGLLRVLRGRPGAGSRRRPRMA,1.69
23,RLRGLLRVLRGRPGAGSRRRDRMA,1.78
24,RLRGLLRVLRGRPGAGSRRRLRMA,1.57

row,Variant,protein stability index
1,RLRGLLRVLRGRPGAGSRRRHRMA,1.66
2,RLRGLLRVLRGRPGAGSRRRFRMA,1.58
3,RLRGLLRVLRGRPGAGSRRRGIMA,2.78
4,RLRGLLRVLRGRPGAGSRRRGCMA,2.09
5,RLRGLLRVLRGRPGAGSRRRGHMA,2.33
6,RLRGLLRVLRGRPGAGYRRRGRMA,2.52
7,RLRGLLRVLRGRPGAGKRRRGRMA,2.01
8,RLRGLLRVLRGRPGAGERRRGRMA,2.36
9,RLRGLLRVLRGRPGAGTRRRGRMA,3.32
10,RLRGLLRVLRGRPGAGGRRRGRMA,1.92
11,RLRGLLRVLRGRPGAGLRRRGRMA,2.86
12,RLRGLLRVLRGRPGAGFRRRGRMA,2.58
13,RLRGLLRVLRGRPGAGARRRGRMA,1.75
14,RLRGLLRVKRGRPGAGSRRRGRMA,3.26
15,RLRGLLRVYRGRPGAGSRRRGRMA,2.73
16,RLRGLLRVFRGRPGAGSRRRGRMA,3.09
17,RLRGLLRVTRGRPGAGSRRRGRMA,4
18,RLRGLLRVVRGRPGAGSRRRGRMA,1.92
19,RLRGLLRVQRGRPGAGSRRRGRMA,3.39
20,RLRGLLRVERGRPGAGSRRRGRMA,3.75
21,RLRGLLRVNRGRPGAGSRRRGRMA,3.72
22,RLRGLLRVWRGRPGAGSRRRGRMA,2.83
23,RLRGLLRVLRGRPYAGSRRRGRMA,3
24,RLRGLLRVLRGRPKAGSRRRGRMA,1.86

row,Variant,protein stability index
1,RLRGLLRVLRGRPVAGSRRRGRMA,2.04
2,RLRGLLRVLRGRPLAGSRRRGRMA,1.41
3,RLRGLLRVLRGRPWAGSRRRGRMA,2.76
4,RLRGLLRVLRGRPMAGSRRRGRMA,1.92
5,RLRGLLRVLRGRPAAGSRRRGRMA,2.84
6,RLRGLLRVLRGRPFAGSRRRGRMA,1.85
7,RLRGLLRVLRGRPCAGSRRRGRMA,1.84
8,RLRGSLRVLRGRPGAGSRRRGRMA,4.64
9,RLRGDLRVLRGRPGAGSRRRGRMA,4.05
10,RLRGYLRVLRGRPGAGSRRRGRMA,3.49
11,RLRGWLRVLRGRPGAGSRRRGRMA,1.85
12,RLRGQLRVLRGRPGAGSRRRGRMA,3.78
13,RLRGCLRVLRGRPGAGSRRRGRMA,3.17
14,RLRGGLRVLRGRPGAGSRRRGRMA,4.71
15,RLRGMLRVLRGRPGAGSRRRGRMA,2.88
16,RLRGPLRVLRGRPGAGSRRRGRMA,4.32
17,RLRGALRVLRGRPGAGSRRRGRMA,4.21
18,RLRGELRVLRGRPGAGSRRRGRMA,3.98
19,RLRGVLRVLRGRPGAGSRRRGRMA,2.71
20,RLRGNLRVLRGRPGAGSRRRGRMA,4.52
